Test results reported in the supplement of paper PMC10567573.
± gives the standard deviation.

Experiment: protein stability index of a GFP-peptide fusion (GPS, HEK-293T) (PSI 1-6); higher = more stable
[1] = treatment: DMSO, c terminus: a fixed tail appended
[2] = treatment: MLN4924 1 uM, 8 h, c terminus: a fixed tail appended
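Further: 24-mer peptide tiles fused after GFP, lentivirally expressed, FACS-sorted into six equal bins by GFP/DsRed ratio, decoded by Illumina sequencing, PSI is the read-weighted mean bin number.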

Row | Sequence | protein stability index [1] | protein stability index [2] | protein stability index (treatment: DMSO, c terminus: native) | protein stability index (treatment: MLN4924 1 uM, 8 h, c terminus: native)
1 | AAALDYEADGSTNNGIFQINSRRW [SPACA3] | 3.64 ± 0.46 | 3.76 ± 0.35 | – | –
2 | AALAAMNGRKIMGKEVKVNWATTP [TIA1] | 2.25 ± 0.32 | 2.3 ± 0.28 | – | –
3 | AALSATGPRFLAYFGSFATVGLLW [TMEM175] | 3.01 ± 0.25 | 3.18 ± 0.72 | – | –
4 | AANSYDLAIKAITSSAKVDMTFEE [FKBP8] | 4.28 ± 0.24 | 4.36 ± 0.22 | – | –
5 | AAPPPPATPIVPVVPPTPPVVKKK [BRD3] | 5.51 ± 0.21 | 5.25 ± 0.48 | – | –
6 | ADYFATFVQREEQLQFLIRYHRFI [CDS1] | 2.2 ± 0.54 | 2.37 ± 0.27 | – | –
7 | AEALFDFTGNSKLELNFKAGDVIF [NCF4] | 2.05 ± 0.29 | 2.23 ± 0.27 | – | –
8 | AEGLANGPDVLETDGLQEVPLCSC [EHMT1] | 4.75 ± 0.2 | 5 ± 0.31 | – | –
9 | AENYLSGGGPGDGGGADTGTGGEE [FBXO33] | 5.42 ± 0.31 | 5.55 ± 0.23 | – | –
10 | AERYKLERLAEAEKSQLIMQAEAE [FLOT1] | 5.29 ± 0.25 | 5 ± 0.28 | – | –
11 | AFCALVHSFFPDAFDYNSLSPTQR [SMTNL2] | 2.61 ± 0.56 | 2.21 ± 0.31 | – | –
12 | AFLELPHGSGGSGYPAAPPAVPFA [TBX6] | 2.55 ± 0.15 | 2.69 ± 0.39 | – | –
13 | AFMNQEITKAFHVRKANRIKECLS [RHOBTB1] | 2.41 ± 0.18 | 2.53 ± 0.33 | – | –
14 | AFREFDRDRDGRITVAELREAVPA [CABP4] | 4.65 ± 0.37 | 4.58 ± 0.17 | – | –
15 | AGALLRLPSERLDFSMAEALNQEF [PRPH] | 3.32 ± 0.3 | 3.52 ± 0.35 | – | –
16 | AGDGDTSNFETYPENDWDTAAPVP [PRKX] | 5.33 ± 0.33 | 5.14 ± 0.32 | – | –
17 | AGGATAWGDLLGEDSLAALSSVPS [SNAP91] | 3.99 ± 0.25 | 3.96 ± 0.11 | – | –
18 | AGGGGFGGGSLSGGGGSRSISASS [KRT15] | 3.89 ± 0.3 | 4 ± 0.21 | – | –
19 | AGGHLAVVELLLAHGADPTHRLKD [ANKRD17] | 1.95 ± 0.18 | 2.11 ± 0.32 | – | –
20 | AGIGRTGTFCSLDICLAQLEELGT [PTPN9] | 2.23 ± 0.24 | 2.62 ± 0.64 | – | –
21 | AGKSGTSTPTTPGSTAITPGTPPS [MAP2] | 5.11 ± 0.33 | 5.11 ± 0.44 | – | –
22 | AGLLPPVPAQKFSALTFLRVDQDK [SMOC2] | 3.21 ± 0.21 | 3.3 ± 0.29 | – | –
23 | AGSIGGLFFAVGIAQYALLGYFIR [SLC22A15] | 3.35 ± 0.72 | 3.4 ± 0.23 | – | –

Row | Sequence | protein stability index [1] | protein stability index [2] | protein stability index (treatment: DMSO, c terminus: native) | protein stability index (treatment: MLN4924 1 uM, 8 h, c terminus: native)
24 | AIGVGQVDFNTLKSIGSEPHEDHV [MATN2] | 4.67 ± 0.24 | 4.88 ± 0.054 | – | –
25 | AILGEQRPRQRQRVYPKCTWLTTP [TCF25] | 2.46 ± 0.38 | 2.05 ± 0.27 | – | –
26 | AKPEALSSPKFREEAAFPGRRVNA [ELOA2] | 4.48 ± 0.25 | 4.59 ± 0.17 | – | –
27 | ALKRQLPFRGDEGIFEESFIEERR [SNX12] | 3.8 ± 0.16 | 4.15 ± 0.31 | – | –
28 | ALLKFREDEGFVREEEDRALPENE [KCNA4] | 5.31 ± 0.32 | 5.43 ± 0.19 | – | –
29 | ALQYAGDGSVLLIPRTMADQQARR [NFE2L1] | 3.11 ± 0.14 | 3.19 ± 0.63 | – | –
30 | ANHTHTFYGHSHHSHHGHPSHQSH [C10orf62] | 3.51 ± 0.12 | 3.46 ± 0.23 | – | –
31 | APKDSAPQDLAPQVSAHHRSQESL [TBC1D10A] | 5.36 ± 0.2 | 5.38 ± 0.14 | – | –
32 | APQNLTRWTFEKACHPFLLGPPLV [TOR1AIP2] | 2.4 ± 0.21 | 2.08 ± 0.18 | – | –
33 | AQNREPESVEQLESRIVEQENAIQ [SNX8] | 5.54 ± 0.063 | 5.52 ± 0.19 | – | –
34 | AQTLAMMLQEQLDAINEEIRMIQE [PPFIA4] | 2.95 ± 0.29 | 2.7 ± 0.46 | – | –
35 | AQTLLRLSGVQRVESVFFGGGTPS [RSAD1] | 2.43 ± 0.27 | 2.47 ± 0.3 | – | –
36 | ARAFAEKNNLSFIETSALDSTNVE [RAB11B] | 4.51 ± 0.15 | 4.54 ± 0.13 | – | –
37 | ARLFDEPQLASLCLDTIDKSTMDA [BTBD1] | 4.35 ± 0.43 | 4.53 ± 0.17 | – | –
38 | ARLRHQELFRLRGIKAQVALRLAE [NOP53] | 2.22 ± 0.15 | 2.22 ± 0.31 | – | –
39 | ARQEGLTFFGTELAPVRQQELASL [PBXIP1] | 3.56 ± 0.22 | 3.69 ± 0.48 | – | –
40 | ARSGHRCVADNTNLYVFGGYNPDY [KLHDC10] | 2.23 ± 0.22 | 2.3 ± 0.36 | – | –
41 | ASLPSQKYPGPQAEGDSEGLSQGL [CHGA] | 5.2 ± 0.28 | 5.25 ± 0.17 | – | –
42 | ASSRSQQSSKRSSRSVEDDKEGHL [CLK3] | 5.44 ± 0.079 | 5.52 ± 0.29 | – | –
43 | ATDPFVAFHINKGLVKKYMNSLLI [FADS1] | 2.46 ± 0.59 | 2.64 ± 0.43 | – | –
44 | ATPGEYSVNICGMNEHPVCSRTWT [SPAG8] | 2.44 ± 0.28 | 2.57 ± 0.39 | – | –
45 | AVDFTQEEWGQLDPTQRILYRDVM [ZNF8] | 3.75 ± 0.18 | 3.88 ± 0.35 | – | –
46 | AWISKIKGSPDVSASSDEPYARIQ [SMIM2] | 3.11 ± 0.38 | 3.44 ± 0.17 | – | –

Row | Sequence | protein stability index [1] | protein stability index [2] | protein stability index (treatment: DMSO, c terminus: native) | protein stability index (treatment: MLN4924 1 uM, 8 h, c terminus: native)
47 | AWLPQAKVPFSQEIKDLILPKISD [PI4K2A] | 2.72 ± 0.059 | 2.78 ± 0.18 | – | –
48 | AYQQGVGYQMLGNVVTIGLAFFPF [PHTF1] | 2.93 ± 0.39 | 3.13 ± 0.067 | – | –
49 | CAFSRTLPWSSVLRVWDMFFCEGV [TBC1D10A] | 2.85 ± 0.42 | 2.94 ± 0.49 | – | –
50 | CAHCRAHLANHDDLISKSFQGSQG [YPEL3] | 2.45 ± 0.34 | 2.74 ± 0.24 | – | –
51 | CCLVKMESLEPDAQVLMLGQILEL [FANCE] | 3.04 ± 0.15 | 2.83 ± 0.48 | – | –
52 | CCRACSVSFSTGAGGWSNHHFCVI [BET1L] | 2.42 ± 0.26 | 2.35 ± 0.33 | – | –
53 | CEEALCSNLSVENVADTLVLADLH [SPOPL] | 4.52 ± 0.086 | 4.48 ± 0.22 | – | –
54 | CEETGELFEEPAPQALATRALPCP [FCHSD1] | 4.95 ± 0.2 | 4.9 ± 0.24 | – | –
55 | CEGPPRGKGFRDRNVTGTPLTGDK [ADAMTSL2] | 5.07 ± 0.36 | 5.17 ± 0.16 | – | –
56 | CEMDWSDKMEAYNIDETCGRHHSQ [TEKT4] | 4.53 ± 0.15 | 4.56 ± 0.13 | – | –
57 | CHSFAAAADGPTVCCNPYHFSRLC [SMAD6] | 2.4 ± 0.35 | 2.22 ± 0.2 | – | –
58 | CKARMERDGYGMTPLLAASVTGHT [FEM1A] | 2.9 ± 0.32 | 2.87 ± 0.2 | – | –
59 | CLAQGWKQYQQRAFGWFRCSSCQR [RTP4] | 2.15 ± 0.15 | 2.27 ± 0.28 | – | –
60 | CLECGKSFCHGSSLKRHLKTHTGE [ZNF449] | 4.78 ± 0.16 | 5.273 ± 0.015 | – | –
61 | CLSFQPECSMKLTPLVLEVFGNEI [VDR] | 2.27 ± 0.38 | 2.52 ± 0.19 | – | –
62 | CQEWYARRHCPLPQATFWGLVTPR [SOAT2] | 2.32 ± 0.23 | 2.25 ± 0.54 | – | –
63 | CQEYLARNARIVHLVEETRIHVLP [CPXM2] | 2.2 ± 0.28 | 2.49 ± 0.35 | – | –
64 | CRCKNSNTVYCKLESCPSRGQGKP [SPRY1] | 3.66 ± 0.59 | 3.77 ± 0.29 | – | –
65 | CRIQDLCAMEDHNCEQLCVNVPGS [MATN2] | 3.01 ± 0.44 | 2.77 ± 0.32 | – | –
66 | CSSKRSSIPLMGFEFEVRVCDSCH [WDFY2] | 2.24 ± 0.39 | 2.15 ± 0.34 | – | –
67 | CTNIFYEEENPGGCEDEYLVNPTC [ZER1] | 4.31 ± 0.2 | 4.36 ± 0.33 | – | –
68 | CVVCGDKSSGKHYGQFTCEGCKSF [NR2F2] | 4.76 ± 0.4 | 4.99 ± 0.14 | – | –
69 | DAASVYTLPAGADFLMCYSVAEGY [CASP6] | 2.34 ± 0.22 | 2.33 ± 0.25 | – | –

Row | Sequence | protein stability index [1] | protein stability index [2] | protein stability index (treatment: DMSO, c terminus: native) | protein stability index (treatment: MLN4924 1 uM, 8 h, c terminus: native)
70 | DAGEVSYLPRDFSTYRPLPDPSVW [MYORG] | 3.29 ± 0.17 | 3.27 ± 0.38 | – | –
71 | DAVPPGMESLISAPLVKTLEKEEE [CDC25B] | 5.44 ± 0.21 | 5.58 ± 0.33 | – | –
72 | DDAVRVLREIVHKPGPITLTVAKC [DVL3] | 2.87 ± 0.16 | 2.9 ± 0.17 | – | –
73 | DECEKAYFYMSCLVKHKRIHSREK [ZNF649] | 2.69 ± 0.14 | 2.9 ± 0.35 | – | –
74 | DFDYNAIDNANRILGPAYFVTYVF [PKD2L1] | 2.73 ± 0.6 | 2.66 ± 0.59 | – | –
75 | DFLETPELTSTMLVPASWWILNN [NECAB1] | – | – | 2.21 ± 0.35 | 2.18 ± 0.25
76 | DGIDRWIKEIDEHAPGVPRILVGN [RAB40C] | 3.81 ± 0.19 | 3.59 ± 0.26 | – | –
77 | DGYGMTPLLSASVTGHTNIVDFLT [FEM1C] | 3.01 ± 0.27 | 3.1 ± 0.28 | – | –
78 | DIWSKSNYQVFQKVTDHATTALLH [MED27] | 2.44 ± 0.27 | 2.34 ± 0.31 | – | –
79 | DKILALVPETIHDELQQSFQKSHN [PRIM1] | 3.85 ± 0.42 | 3.93 ± 0.47 | – | –
80 | DLEMKEEEEISETGELVGPFVSAM [ZBED2] | 5.29 ± 0.27 | 5.27 ± 0.12 | – | –
81 | DLLLWIQKHTEVETVDLVLKLKNK [DENND6A] | 2.57 ± 0.63 | 2.21 ± 0.45 | – | –
82 | DLRINLWNFEITNQSFNIVDIKPA [PPP2R2B] | 2.47 ± 0.86 | 2.4 ± 0.07 | – | –
83 | DLTFAPDGSLILVSASRDKTLRVW [WSB1] | 2.32 ± 0.31 | 2.37 ± 0.099 | – | –
84 | DLVDSLKLAVFMWLMTYVGAVFNG [RTN3] | 3.02 ± 0.59 | 3.2 ± 0.051 | – | –
85 | DLVNRTPWKKCCFSGDGEYIVAGS [RBBP5] | 2.64 ± 0.25 | 2.37 ± 0.21 | – | –
86 | DPEVLEAVGDRQDGLREQLQAPVP [PBXIP1] | 5.43 ± 0.27 | 5.4 ± 0.24 | – | –
87 | DPGPEPEEEPGVRNGMASEGLNSS [PSD2] | 5.58 ± 0.25 | 5.44 ± 0.35 | – | –
88 | DPLSTNYSLAPNTPINQNVSLHQA [NFE2L1] | 4.25 ± 0.45 | 4.46 ± 0.16 | – | –
89 | DQDTLAPLPHPGAAPWPMAFPYQY [DVL3] | 3.15 ± 0.29 | 3.12 ± 0.25 | – | –
